Test results published in paper PMC10231232, “Expanding the Physiological Role of Aryl-Alcohol Flavooxidases as Quinone Reductases” (Applied and Environmental Microbiology, 2023).
Where two headings read alike, the source gives them in different places.

How the values were obtained:
[1] = tested on: T1, PoAAO; assay: steady-state kinetics, absorbance of aldehyde formed; format: biochemical, Pleurotus ostreatus; settings: apparent, air-saturated (0.256 mM O2), 50 mM NaPi pH 6.0, 25°C
T1 construct: gene AAO; 60,903 Da
Source text: steady-state kinetics, absorbance of aldehyde formed on PoAAO | The three enzymes oxidized the whole spectrum of alcohols although with different catalytic efficiencies.

[2] = target: T2, PeAAO (Pleurotus eryngii, UniProt O94219); assay: bi-substrate steady-state kinetics, anaerobic, BQ reduction at […] nm; format: biochemical; settings: electron acceptor, p-methoxybenzyl alcohol as co-substrate (varied), ping-pong fit, 50 mM NaPi pH 6.0, 25°C
T2 construct: gene aao; 61,847 Da
T2 sequence (O94219 28-593): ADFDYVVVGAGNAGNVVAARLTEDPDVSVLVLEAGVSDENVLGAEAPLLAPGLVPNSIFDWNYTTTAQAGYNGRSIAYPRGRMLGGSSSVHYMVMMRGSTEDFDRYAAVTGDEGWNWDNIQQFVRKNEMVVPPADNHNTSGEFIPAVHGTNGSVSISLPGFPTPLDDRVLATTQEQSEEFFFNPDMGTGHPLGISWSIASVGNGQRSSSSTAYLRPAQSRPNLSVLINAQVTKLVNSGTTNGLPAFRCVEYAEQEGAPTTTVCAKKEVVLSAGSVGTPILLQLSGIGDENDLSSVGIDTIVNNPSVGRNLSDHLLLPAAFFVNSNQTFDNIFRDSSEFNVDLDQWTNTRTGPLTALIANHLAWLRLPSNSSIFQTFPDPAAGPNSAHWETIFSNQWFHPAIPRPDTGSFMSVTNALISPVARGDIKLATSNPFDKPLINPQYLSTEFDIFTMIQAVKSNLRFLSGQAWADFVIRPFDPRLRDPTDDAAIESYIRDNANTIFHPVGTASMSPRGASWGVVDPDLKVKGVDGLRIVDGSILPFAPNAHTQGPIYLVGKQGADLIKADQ

[3] = tested on: T3, PoAAO; settings: read-out: Km(acceptor); electron acceptor; p-methoxybenzyl alcohol as co-substrate (varied), ping-pong fit, anaerobic, 50 mM NaPi pH 6.0, 25°C
T3 construct: gene AAO

[4] = target: T4, BaAAO (Bjerkandera adusta, UniProt A0ABF7PQ87); assay: bi-substrate steady-state kinetics, anaerobic, BQ reduction at […] nm; format: biochemical; settings: electron acceptor, p-methoxybenzyl alcohol as co-substrate (varied), ping-pong fit, 50 mM NaPi pH 6.0, 25°C
T4 construct: 62,610 Da; one cysteine
T4 sequence (A0ABF7PQ87 1-580): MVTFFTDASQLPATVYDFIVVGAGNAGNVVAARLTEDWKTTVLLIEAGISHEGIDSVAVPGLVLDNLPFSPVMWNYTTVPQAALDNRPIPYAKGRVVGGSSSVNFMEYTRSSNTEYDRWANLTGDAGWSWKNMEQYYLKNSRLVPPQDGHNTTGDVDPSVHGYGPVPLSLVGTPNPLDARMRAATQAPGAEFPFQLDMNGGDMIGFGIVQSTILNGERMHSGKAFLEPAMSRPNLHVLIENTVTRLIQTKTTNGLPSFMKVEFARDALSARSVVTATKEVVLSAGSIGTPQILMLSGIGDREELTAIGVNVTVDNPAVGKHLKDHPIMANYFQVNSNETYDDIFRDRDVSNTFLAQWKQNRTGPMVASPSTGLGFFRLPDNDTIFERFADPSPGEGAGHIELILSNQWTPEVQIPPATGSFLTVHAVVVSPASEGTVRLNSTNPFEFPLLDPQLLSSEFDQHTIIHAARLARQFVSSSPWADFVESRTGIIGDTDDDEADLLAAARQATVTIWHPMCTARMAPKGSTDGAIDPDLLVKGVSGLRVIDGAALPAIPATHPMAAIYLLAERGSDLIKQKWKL

[5] = substrate: OCc1cccc(Cl)c1; assay: purified protein, by the assay type; set-up: steady-state kinetics, spectrophotometric alcohol oxidation to aldehyde, air-saturated 50 mM NaPi pH 6.0, 25 C; settings: pH 6.0
Procedure: Steady-state kinetic parameters were measured spectrophotometrically by monitoring the oxidation of the different alcohols to the corresponding aldehydes—Δε285, 16,950 M^−1 cm^−1 for [compound left out]; Δε240, 5,923 M^−1 cm^−1 for 3-chloro-benzyl alcohol; Δε309, 8,332 M^−1 cm^−1 for vanillyl alcohol; Δε307, 7,383 M^−1 cm^−1 for [compound left out]; Δε280, 30,140 M^−1 cm^−1 for 2,4-hexadien-1-ol from ([15]); Δε295, 15,000 M^−1 cm^−1 for 3-chloro-p-mehxoybenzyl alcohol from ([38]); and Δε310, 9,300 M^−1 cm^−1 for [compound left out] from Guillén et al. ([59])—in air-saturated (0.256 mM O2 concentration) 50 mM NaPi, pH 6.0, at 25°C. Steady-state kinetic analyses and statistical fits were performed using the SigmaPlot program. Apparent kinetic parameters in atmospheric oxygen were determined by fitting initial reaction rates (v0) at different alcohol concentrations to the Michaelis-Menten equation (equation 1). (1) v0/e = kcat[A]/Km + [A] The steady-state curves and resulting kinetic parameters for oxidation of different alcohols under atmospheric conditions with O2 as an electron acceptor were compared for PoAAO, BaAAO, and PeAAO (Fig. S4 and Table S1). The three enzymes oxidized the whole spectrum of alcohols although with different catalytic efficiencies.

[6] = substrate: CC=CC=CCO; assay: steady-state kinetics, absorbance of aldehyde formed; format: biochemical, Pleurotus eryngii; settings: apparent, air-saturated (0.256 mM O2), 50 mM NaPi pH 6.0, 25°C
Source text: (§1) steady-state kinetics, absorbance of aldehyde formed on PeAAO | The three enzymes oxidized the whole spectrum of alcohols although with different catalytic efficiencies.

[7] = substrate: COc1ccc(CO)cc1Cl; assay: as above; format: biochemical, Pleurotus eryngii; settings: apparent, air-saturated (0.256 mM O2), 50 mM NaPi pH 6.0, 25°C
Source text: as §1

[8] = substrate: CC=CC=CCO; assay: as above; format: biochemical, Bjerkandera adusta; settings: apparent, air-saturated (0.256 mM O2), 50 mM NaPi pH 6.0, 25°C
Source text: (§2) steady-state kinetics, absorbance of aldehyde formed on BaAAO | The three enzymes oxidized the whole spectrum of alcohols although with different catalytic efficiencies.

[9] = substrate: OCc1cccc(Cl)c1; assay: as above; format: biochemical, Bjerkandera adusta; settings: apparent, air-saturated (0.256 mM O2), 50 mM NaPi pH 6.0, 25°C
Source text: as §2

[10] = substrate: COc1ccc(CO)cc1Cl; assay: as above; format: biochemical, Bjerkandera adusta; settings: apparent, air-saturated (0.256 mM O2), 50 mM NaPi pH 6.0, 25°C
Source text: as §2

[11] = substrate: COc1cc(CO)ccc1O; assay: as above; format: biochemical, Bjerkandera adusta; settings: apparent, air-saturated (0.256 mM O2), 50 mM NaPi pH 6.0, 25°C
Source text: as §2

Q: How did the Km [1] turn out when `CC=CC=CCO` [2,4-hexadien-1-ol] was run?
A: 86 ± 4 µM

Q: With `OCc1cccc(Cl)c1` [3-chlorobenzyl alcohol] as the molecule, how does the Km [1] read?
A: 80 ± 6 µM

Q: `COc1ccc(CO)cc1OC` [veratryl alcohol] was tested. Which Km [1] did it give?
A: 212 ± 11 µM

Q: For `COc1ccc(CO)cc1O` [isovanillyl alcohol], which Km [1] is on record?
A: 713 ± 44 µM

Q: What does the source list for `O=C1C=CC(=O)C=C1` [BQ, p-benzoquinone]?
A: Km [2]: 48 ± 6 µM; Km [3]: 33 ± 4 µM; Km [4]: 70 ± 9 µM

Q: `COc1ccc(CO)cc1Cl` [3-chloro-p-methoxybenzyl alcohol] was tested. Which Km [1] did it give?
A: 9 ± 1 µM

B1: PeAAO (Pleurotus eryngii) (protein)
chain: ADFDYVVVGAGNAGNVVAARLTEDPDVSVLVLEAGVSDENVLGAEAPLLAPGLVPNSIFDWNYTTTAQAGYNGRSIAYPRGRMLGGSSSVHYMVMMRGSTEDFDRYAAVTGDEGWNWDNIQQFVRKNEMVVPPADNHNTSGEFIPAVHGTNGSVSISLPGFPTPLDDRVLATTQEQSEEFFFNPDMGTGHPLGISWSIASVGNGQRSSSSTAYLRPAQSRPNLSVLINAQVTKLVNSGTTNGLPAFRCVEYAEQEGAPTTTVCAKKEVVLSAGSVGTPILLQLSGIGDENDLSSVGIDTIVNNPSVGRNLSDHLLLPAAFFVNSNQTFDNIFRDSSEFNVDLDQWTNTRTGPLTALIANHLAWLRLPSNSSIFQTFPDPAAGPNSAHWETIFSNQWFHPAIPRPDTGSFMSVTNALISPVARGDIKLATSNPFDKPLINPQYLSTEFDIFTMIQAVKSNLRFLSGQAWADFVIRPFDPRLRDPTDDAAIESYIRDNANTIFHPVGTASMSPRGASWGVVDPDLKVKGVDGLRIVDGSILPFAPNAHTQGPIYLVGKQGADLIKADQ
notes: 61,847 Da
Q: B1 was tested. Which Km [5] did it give?
A: 107 ± 2 µM

Q: And the kcat [5]?
A: 22 ± 1 s⁻¹

Q: What about the kcat/Km [5] of the same molecule?
A: 203 ± 3 mM^-1s^- //

Q: What about the Km [6] of the same molecule?
A: 94 ± 4 µM

Q: And the kcat [6]?
A: 119 ± 1 s⁻¹

Q: What about the Km [7] of the same molecule?
A: 9 ± 1 µM

Q: What about the kcat [7] of the same molecule?
A: 34 ± 1 s⁻¹

B2: BaAAO (Bjerkandera adusta) (protein)
chain: MVTFFTDASQLPATVYDFIVVGAGNAGNVVAARLTEDWKTTVLLIEAGISHEGIDSVAVPGLVLDNLPFSPVMWNYTTVPQAALDNRPIPYAKGRVVGGSSSVNFMEYTRSSNTEYDRWANLTGDAGWSWKNMEQYYLKNSRLVPPQDGHNTTGDVDPSVHGYGPVPLSLVGTPNPLDARMRAATQAPGAEFPFQLDMNGGDMIGFGIVQSTILNGERMHSGKAFLEPAMSRPNLHVLIENTVTRLIQTKTTNGLPSFMKVEFARDALSARSVVTATKEVVLSAGSIGTPQILMLSGIGDREELTAIGVNVTVDNPAVGKHLKDHPIMANYFQVNSNETYDDIFRDRDVSNTFLAQWKQNRTGPMVASPSTGLGFFRLPDNDTIFERFADPSPGEGAGHIELILSNQWTPEVQIPPATGSFLTVHAVVVSPASEGTVRLNSTNPFEFPLLDPQLLSSEFDQHTIIHAARLARQFVSSSPWADFVESRTGIIGDTDDDEADLLAAARQATVTIWHPMCTARMAPKGSTDGAIDPDLLVKGVSGLRVIDGAALPAIPATHPMAAIYLLAERGSDLIKQKWKL
notes: 62,610 Da; one cysteine
Q: With B2 as the molecule, how does the Km [8] read?
A: 854 ± 32 µM

Q: What about the kcat [8] of the same molecule?
A: 42 ± 1 s⁻¹

Q: What about the Km [9] of the same molecule?
A: 37 ± 5 µM

Q: And the kcat [9]?
A: 13 ± 1 s⁻¹

Q: And the Km [10]?
A: 49 ± 4 µM

Q: What about the kcat [10] of the same molecule?
A: 37 ± 1 s⁻¹

Q: What about the Km [11] of the same molecule?
A: 1960 ± 100 µM

Q: And the kcat [11]?
A: 38 ± 1 s⁻¹
